Measured values from patent US20260250410A1 (SICHUAN HUIYU PHARMACEUTICAL, published 2026).
Numbering of substitutions follows the chain as printed.

T1: human CDCP1 on tumor cells (human, UniProt Q9H5V8 30-836)
T1 construct: whole, on cells; cell line is named under assay or readout
T1 sequence (looked up): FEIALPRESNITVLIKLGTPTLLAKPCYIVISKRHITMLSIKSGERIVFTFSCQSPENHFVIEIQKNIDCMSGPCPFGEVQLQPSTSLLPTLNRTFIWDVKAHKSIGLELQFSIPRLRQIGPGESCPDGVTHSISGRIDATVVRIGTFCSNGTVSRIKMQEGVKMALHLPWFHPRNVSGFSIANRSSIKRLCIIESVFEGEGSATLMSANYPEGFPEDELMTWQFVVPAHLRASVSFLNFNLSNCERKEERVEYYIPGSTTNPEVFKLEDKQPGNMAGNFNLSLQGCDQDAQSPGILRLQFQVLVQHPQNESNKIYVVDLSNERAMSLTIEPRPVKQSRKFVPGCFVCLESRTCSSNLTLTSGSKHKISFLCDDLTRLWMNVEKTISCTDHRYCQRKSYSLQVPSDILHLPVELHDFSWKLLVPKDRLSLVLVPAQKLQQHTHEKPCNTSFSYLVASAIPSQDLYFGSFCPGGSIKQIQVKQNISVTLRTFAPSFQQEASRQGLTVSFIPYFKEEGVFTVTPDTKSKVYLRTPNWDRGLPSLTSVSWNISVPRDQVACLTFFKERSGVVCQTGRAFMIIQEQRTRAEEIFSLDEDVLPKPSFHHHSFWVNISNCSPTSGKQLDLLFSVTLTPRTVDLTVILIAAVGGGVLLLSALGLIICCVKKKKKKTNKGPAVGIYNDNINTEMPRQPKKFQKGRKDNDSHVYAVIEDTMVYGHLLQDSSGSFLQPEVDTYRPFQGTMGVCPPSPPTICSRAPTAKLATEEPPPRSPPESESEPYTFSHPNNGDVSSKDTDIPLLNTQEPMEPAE

T2: huCDCP1-his (human, UniProt Q9H5V8 30-667, limits assumed)
T2 construct: also called human CDCP1 antigen; not shown: his tag
T2 sequence (looked up): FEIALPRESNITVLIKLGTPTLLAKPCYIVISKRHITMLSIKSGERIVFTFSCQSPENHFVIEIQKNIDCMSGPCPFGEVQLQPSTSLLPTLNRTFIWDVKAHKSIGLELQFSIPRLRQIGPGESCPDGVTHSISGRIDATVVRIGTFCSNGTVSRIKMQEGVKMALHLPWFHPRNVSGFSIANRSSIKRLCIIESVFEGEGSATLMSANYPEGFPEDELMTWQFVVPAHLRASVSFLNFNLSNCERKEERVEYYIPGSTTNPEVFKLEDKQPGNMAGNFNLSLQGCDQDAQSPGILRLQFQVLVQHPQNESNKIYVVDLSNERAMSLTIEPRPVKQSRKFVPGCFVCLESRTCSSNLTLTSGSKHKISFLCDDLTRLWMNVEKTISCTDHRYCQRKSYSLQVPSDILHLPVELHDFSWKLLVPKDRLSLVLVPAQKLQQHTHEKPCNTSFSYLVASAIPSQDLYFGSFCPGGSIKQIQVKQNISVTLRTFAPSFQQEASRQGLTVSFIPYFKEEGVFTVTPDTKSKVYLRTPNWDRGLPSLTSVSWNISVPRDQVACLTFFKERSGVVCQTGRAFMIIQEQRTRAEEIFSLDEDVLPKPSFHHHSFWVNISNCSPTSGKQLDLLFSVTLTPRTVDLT

T3: HuCDCP1-C (human, UniProt Q9H5V8 30-667)
T3 construct: range 30-667; expressed in HEK-293T, purified by Fc/his tag; also called human CDCP1-C; full-length extracellular domain of human CDCP1; not shown: Fc or his tag
T3 sequence (looked up): T2 sequence (looked up)

T4: HuCDCP1-B (human, UniProt Q9H5V8 343-667)
T4 construct: range 343-667; expressed in HEK-293T, purified by Fc/his tag; also called human CDCP1-B; membrane-proximal region of CDCP1; not shown: Fc or his tag
T4 sequence (looked up): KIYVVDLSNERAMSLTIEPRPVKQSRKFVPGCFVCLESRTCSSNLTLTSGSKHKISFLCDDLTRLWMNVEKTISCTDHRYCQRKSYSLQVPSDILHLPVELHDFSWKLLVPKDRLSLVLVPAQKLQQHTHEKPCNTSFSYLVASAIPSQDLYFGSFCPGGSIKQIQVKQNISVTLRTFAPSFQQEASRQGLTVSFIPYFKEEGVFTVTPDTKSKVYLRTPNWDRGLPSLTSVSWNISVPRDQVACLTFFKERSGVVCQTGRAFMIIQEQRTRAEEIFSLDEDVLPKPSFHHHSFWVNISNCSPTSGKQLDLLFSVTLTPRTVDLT

B1: SB8 (antibody, V domains shown)
VH: QVTLKESGPGILKPSQTLSLTCSFSGFSLSTSGVGVGWIRQPSGKGLEWLAHIWWDDEKYYNPSLKSHFTISKDTSRNQVFLKITSVDTADTATYYCVKEGDGMDYWGQGTSVTVSS
VL: QAVVTQESALTTSPGETVTLTCRSSTGAVATSNYANWVQEKPDHLFTGLIGGTNNRVPGVPARFSGSLIGDKAALTITGAQTEDEAIYFCALWYSNHWVFGGGTKLTVL
notes: single B cell antibody, expressed in CHO
B2: SB5 (antibody, V domains shown)
VH: QVQLRESGPGLVAPSQSLSITCTVSGFSLTDFGVNWVRQPPGKGLEWLGIIWANGRIEYNSALKSRLSISKDNSRSQVFLKLNSLQTDDTARYYCARDHDYDVEAMDYWGQGTSVTVSA
VL: QIVLTQSPAIKSASPGEKVTMTCSASSSVIYMHWYQQKSGSSPKRWIYDTSKLASGVPVRFSGSGSGTSYSLTISTMEAEDAATYYCQQWSSYPPTFGGGTKVEIK
notes: as for B1
B3: 1CP-117-MMAE (antibody, human IgG1, kappa, V domains shown)
VH: QVQLVQSGSELKKPGASVKVSCKASGYTLTDFSMHWVRQAPGQGLEWMGWINTETGAPTYADDFKGRFVLSLDTSVSTAYLQISSLKAEDTAVYYCSRGRDYDPHFDYWGQGTLVTVSS
VL: EIVLTQSPATLSLSPGERATLSCRASQSISDFLHWYQQKPGQSPRLLIKYASQSISGIPARFSGSGSGSDFTLTISSVEPEDFAVYYCQSAHSFPYTFGQGTKLEIKR
modifications: vc-MMAE coupled after reduction, sites not stated; DAR 4.8
B4: 1CP-064 (antibody, V domains shown)
VH: EVKLVESGPGILQPSQTLSLTCSFSGFSLSTSGMGVGWIRQPSGKGLEWLAHIWWDDVKRYNPALKSRLTISKDTSSSQVFLKIASVDTADTATYYCARMGGKVPWFAYWGQGTTVTVSS
VL: DVVMTQTPASLAVSLGQRATISCRASESVDSYGNSFMHWYQQKPGQPPKLLIYLASNLESGVPARFSGSGSRTDFTLTIDPVEADDAATYYCQQNNEDPWTFGGGTKLEIK
notes: murine hybridoma mAb
B5: 1CP-062 (antibody, V domains shown)
VH: EVKLVESGPGLVAPSQSLSITCTVSGFSLTTYGVHWVRQPPGKGLEWLVVIWSDGNTTYNSALKSRLSINKDNSKSQVFLKMNSLQTDDTAMYYCAKNYRNYDYAMDYWGQGTTVTVSS
VL: B4 VL with V2I, L54R, V62I, D80N, A87V, N95S, W100Y
notes: murine hybridoma mAb
B6: SB9 (antibody, V domains shown)
VH: DVKLVESGGGLVKPGGSLKLSCAASGFTFSSFTMSWVRQTPEKRLEWVATISSSGSYTYYPDSVKGRFTISRDNAKNTLYLQMSSLKSEDTAMYYCTSPDYYGRSYGYFDYWGQGTTLTVSS
VL: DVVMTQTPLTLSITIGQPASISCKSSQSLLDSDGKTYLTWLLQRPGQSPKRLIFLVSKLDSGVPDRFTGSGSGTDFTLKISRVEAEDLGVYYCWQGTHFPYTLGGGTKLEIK
notes: as for B1
B7: 1CP-065 (antibody, V domains shown)
VH: EVTLKESGAELVRPGALVKLSCKASGFNIKDYYMHWVKQRPEQGLEWIGWIDPENDNTIYDPKFQGKASITADTSSNTAYLQLSSLTSEDTAVYYCARFYGSYYYAMDYWGQGTTVTVSS
VL: DIVMTQSPKFMSTSVGDRVSITCKASQDVSTAVTWYQQKPGQSPKLLIYWASTRHTGVPDRFTGSGSGTDYTLTISSVQAEDLALYYCQQHYSTPYTFGGGTKLEIK
notes: murine hybridoma mAb
B8: 1CP-125-MMAE (antibody, human IgG1, kappa, V domains shown)
VH: QVQLVQSGAEVKKPGASVKVSCKASGYNFISYWLHWVRQAPGQGLEWMGGIYPGNTDTTYNQKFKGRVTMTADTSTSTVYMELSSLRSEDTAVYYCIRYDYDRGMDYWGQGTLVTVSS
VL: DIQMTQSPSSLSASVGDRVTITCRASEDIYYRLAWYQQKPGKAPKLLISGATALETGVPSRFSGSGSGKDYTFTISSLQPEDIATYYCQHYWNIPWTFGQGTKVEIKR
modifications: vc-MMAE coupled after reduction, sites not stated; DAR 4.3
B9: 1CP-152-MMAE (antibody, human IgG1, kappa, V domains shown)
VH: EVQLVESGGGLVQPGRSLRLSCTTSGLTFTHYHMSWVRQAPGKGLEWVAIIRNKAYGYTTDYSASVRGRFTISRDDSKSILYLQMNSLKTEDTAVYYCVREGGYGYDGTFAYWGQGTLVTVSS
VL: DIQMTQSPSSLSASVGDRVTITCRASESVDNYGISFMNWFQQKPGQAPKLLIYAASNQGSGVPSRFSGSGSGTDFTLTISSMQPEDFATYYCQQSKEVPRTFGGGTKVEIKR
modifications: vc-MMAE coupled after reduction, sites not stated; DAR 4.5

Tests used:
[1] = target: T1, human CDCP1 on tumor cells; test: flow cytometry, MDA-MB-231 cells, 1.5 µg/ml
Description: Flow cytometry was used to detect the binding capacity of antibody to tumor cells. MDA-MB-231 cells were subjected to digestion with 5 mM EDTA, centrifuged, and counted, the cells were resuspended with FACS buffer (PBS+2% FBS). Cell density was adjusted to 4×10⁵/ml, 50 μL (2×10⁴ tumor cells) were added per well, an Fc blocker (Human TruStain FcX™, Biolegend, 422302) was added for blocking at room temperature for 10 mins, then the antibody to be tested was added at a final concentration of 1.5 μg/ml. The mixture was incubated out at 4° C. for 30 mins, centrifuged and washed, a secondary antibody (PE anti-human IgG Fc Antibody, Biolegend, 410708) was added for incubation, and then detection was performed using a flow cytometer. Geo-MFI was used as the preliminary criterion for determining antibody-cell binding.

huCDCP1-his = target: T2, huCDCP1-his; test: SPR (Caterra), antigen immobilized
Description: (§1) The candidate antibodies obtained from Example 6 were subjected to gene cloning, constructed into an expression vector for a small amount of expression in CHO cells, and purified with an Fc affinity column (AT Protein A Diamond Plus. No. AA402312). Antibody purity was analyzed by HPLC and determined by Nanodrop. High-throughput affinity assay was carried out for a small amount of antibodies by Caterra. […] At the same time, 2 μg/ml antigen human CDCP1-C and 2 μg/ml human CDCP1-B were used for coating, and the antigen-antibody binding capacity was tested by ELISA for verification.

HuCDCP1-C = target: T3, HuCDCP1-C; test: ELISA, coated antigen
Description: as §1

HuCDCP1-B = target: T4, HuCDCP1-B; test: ELISA, coated antigen
Description: as §1

[2] = target: T1, human CDCP1 on tumor cells; test: cell-based or functional assay
[3] = target: T1, human CDCP1 on tumor cells; test: cell-based or functional assay; remark: listed apart in the source
[4] = target: T1, human CDCP1 on tumor cells; test: laser confocal microscopy, HCC1806 cells, dye-labeled antibody
From the text: The lysosomes were labeled with red fluorescence, and the relative position changes and colocalization of green fluorescence and red fluorescence in the cells were detected to determine whether the antibodies were colocalized with lysosomes after endocytosis into the cells.

Binder	IC50 (nM), killing of HCT116 cells (120 h), CellTiter-Glo [2] [nM]	IC50 (nM), killing of HCC1806 cells (120 h), CellTiter-Glo [3] [nM]	binding result [4]	other results
B1	–	–	–	binding result [1]: binds
B2	–	–	–	Kd (huCDCP1-his): 835 pM; EC50 (HuCDCP1-C): 413 pM; EC50 (HuCDCP1-B): 208 pM
B3	1.51	0.894	–	–
B4	–	–	binds	–
B5	–	–	binds	–
B6	–	–	–	binding result [1]: binds
B7	–	–	binds	–
B8	0.668	0.272	–	–
B9	1.27	0.734	–	–
